Publication PMC10803429

Biological target: SpyTag-VP2 (N-terminal SpyTag chimera of the major structural protein VP2 of parvovirus B19) (not stated | parvovirus B19)
Experiment: SEC + other: light scattering (MALS, Zetasizer Ultra); different amounts of SpyTag-VP2 (2.5-60 mL of 0.142 mg/mL) loaded on a 5-mL HisTrap HP column; peak run on Sephacryl 300-HR in 2 M GdnHCl buffer; fractions of 18-28 nm pooled, BCA

Substance: SpyTag-VP2 (N-terminal SpyTag chimera of the major structural protein VP2 of parvovirus B19)
- percent of the loaded protein recovered as VLPs: 95%
